Here are results for two molecules from patent publication US20220194999A1 (Janssen / Centocor, published 2022).

The target in this assay is T1, HLA-A*02:01 class I complex (conditional p*HLA*02:01, biotinylated heavy chain with beta2-microglobulin) (human, biotinylated heavy chain).
T1 construct: UV-labile peptide p* is cleaved and exchanged for the test peptide; also called HLA 2.1
In words: UV peptide exchange, HLA class I ELISA, % of Pos peptide.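 Also: Streptavidin-captured HLA complexes after exchange detected via HRP anti-human B2M antibody, absorbance read, colour scales with intact complex, normalized to exchange control peptide as 100%.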

Source text: The HLA class I ELISA is an enzyme immunoassay based on the detection of beta2-microglobulin (B2M) of (peptide-stabilized) HLA class I complexes. To this end streptavidin is bound onto polystyrene microtiter wells. After washing and blocking, HLA complex present in exchange reaction mixtures or ELISA controls is captured by the streptavidin on the microtiter plate via its biotinylated heavy chain. Non-bound material is removed by washing. Subsequently, horseradish peroxidase (HRP)-conjugated antibody to human B2M is added. […] In the latter case B2M is removed during the washing step. After removal of non-bound HRP conjugate by washing, a substrate solution is added to the wells. A colored product is formed in proportion to the amount of intact HLA complex present in the samples. After the reaction has been terminated by the addition of a stop solution, absorbance is measured in a microtiter plate reader. The absorbance is normalized to the absorbance of an exchange control peptide (represents 100%). Also, suboptimal HLA binding of peptides with a moderate to low affinity for HLA class I molecules can be detected by this ELISA technique
Coating wells of two NUNC MaxiSorp™ 96-well ELISA plates: only the contents of one coating buffer capsule were dissolved in 100 mL of distilled water (0.05 M carbonate-bicarbonate buffer, pH 9.6 at 25° C.). 46 μL of Streptavidin stock solution were added to 23 mL coating buffer. 100 μL of the Streptavidin stock solution were added to all wells. Each microtiter plate was covered with an adhesive seal and incubated overnight at room temperature (18-25° C.).

For the molecule SLTCTYFPV (also called M212) [TP53_S127F6 mimic peptide SLTCTYFPV], the Average % stood at 95.5%, the “Exch I (%)” value was found to be 93.7% and the “Exch II (%)” value worked out at 97.2%.

For the molecule SLTCTYFPL (also called M214) [TP53_S127F8 mimic peptide SLTCTYFPL], the Average % was determined as 70.8%, the “Exch I (%)” value turned out to be 69.9% and the “Exch II (%)” value is 71.6%.
